Series [1] addresses Myo4/2p (Myo4 motor - Myo2 IQ + C-tail) (S. cerevisiae) (UniProt P32492). Kind of series: cross-linking.
The target of series [2] is Myo4p-GFP (S. cerevisiae) (UniProt P32492). Kind of series: single-molecule fluorescence intensity and photobleaching.
Series [3] concerns the molecule itself. The series can be described thus: cross-linking.
Series [4] deals with the molecule itself. Kind of series: single-molecule fluorescence intensity and photobleaching.

Bounds are passed on as bounds.

“Myo4/2p (Myo4 motor - Myo2 IQ + C-tail) (from UniProt P32492 1-778; P19524 783-1574)”: in series [1], the stoichiometry N (usually a count of units in the complex or per binding partner) came out at 2. In turn, “Myo4p-GFP (from UniProt P32492 1-1471) (natural protein)” had a stoichiometry N in series [2] of over 3.

B1: Myo2p (TEV-eluted and actin affinity purified from Myo2p-1/2TAP) (natural protein, S. cerevisiae, UniProt P19524 1-1574, looked up)
chain: MSFEVGTRCWYPHKELGWIGAEVIKNEFNDGKYHLELQLEDDEIVSVDTKDLNNDKDQSLPLLRNPPILEATEDLTSLSYLNEPAVLHAIKQRYSQLNIYTYSGIVLIATNPFDRVDQLYTQDMIQAYAGKRRGELEPHLFAIAEEAYRLMKNDKQNQTIVVSGESGAGKTVSAKYIMRYFASVEEENSATVQHQVEMSETEQKILATNPIMEAFGNAKTTRNDNSSRFGKYLEILFDKDTSIIGARIRTYLLERSRLVYQPPIERNYHIFYQLMAGLPAQTKEELHLTDASDYFYMNQGGDTKINGIDDAKEYKITVDALTLVGITKETQHQIFKILAALLHIGNIEIKKTRNDASLSADEPNLKLACELLGIDAYNFAKWVTKKQIITRSEKIVSNLNYSQALVAKDSVAKFIYSALFDWLVENINTVLCNPAVNDQISSFIGVLDIYGFEHFEKNSFEQFCINYANEKLQQEFNQHVFKLEQEEYVKEEIEWSFIEFNDNQPCIDLIENKLGILSLLDEESRLPAGSDESWTQKLYQTLDKSPTNKVFSKPRFGQTKFIVSHYALDVAYDVEGFIEKNRDTVSDGHLEVLKASTNETLINILEGLEKAAKKLEEAKKLELEQAGSKKPGPIRTVNRKPTLGSMFKQSLIELMNTINSTNVHYIRCIKPNADKEAWQFDNLMVLSQLRACGVLETIRISCAGFPSRWTFEEFVLRYYILIPHEQWDLIFKKKETTEEDIISVVKMILDATVKDKSKYQIGNTKIFFKAGMLAYLEKLRSNKMHNSIVMIQKKIRAKYYRKQYLQISQAIKYLQNNIKGFIIRQRVNDEMKVNCATLLQAAYRGHSIRANVFSVLRTITNLQKKIRKELKQRQLKQEHEYNAAVTIQSKVRTFEPRSRFLRTKKDTVVVQSLIRRRAAQRKLKQLKADAKSVNHLKEVSYKLENKVIELTQNLASKVKENKEMTERIKELQVQVEESAKLQETLENMKKEHLIDIDNQKSKDMELQKTIENNLQSTEQTLKDAQLELEDMVKQHDELKEESKKQLEELEQTKKTLVEYQTLNGDLQNEVKSLKEEIARLQTAMSLGTVTTSVLPQTPLKDVMGGGASNFNNMMLENSDLSPNDLNLKSRSTPSSGNNHIDSLSVDRENGVNATQINEELYRLLEDTEILNQEITEGLLKGFEVPDAGVAIQLSKRDVVYPARILIIVLSEMWRFGLTKQSESFLAQVLTTIQKVVTQLKGNDLIPSGVFWLANVRELYSFVVFALNSILTEETFKNGMTDEEYKEYVSLVTELKDDFEALSYNIYNIWLKKLQKQLQKKAINAVVISESLPGFSAGETSGFLNKIFANTEEYTMDDILTFFNSIYWCMKSFHIENEVFHAVVTTLLNYVDAICFNELIMKRNFLSWKRGLQLNYNVTRLEEWCKTHGLTDGTECLQHLIQTAKLLQVRKYTIEDIDILRGICYSLTPAQLQKLISQYQVADYESPIPQEILRYVADIVKKEAALSSSGNDSKGHEHSSSIFITPETGPFTDPFSLIKTRKFDQVEAYIPAWLSLPSTKRIVDLVAQQVVQDGH
In the case of B1, the “stoichiometry N” value in series [3] came to 2.

B2: Myo2p-GFP (natural protein, S. cerevisiae, UniProt P19524 1-1574, looked up)
chain: MSFEVGTRCWYPHKELGWIGAEVIKNEFNDGKYHLELQLEDDEIVSVDTKDLNNDKDQSLPLLRNPPILEATEDLTSLSYLNEPAVLHAIKQRYSQLNIYTYSGIVLIATNPFDRVDQLYTQDMIQAYAGKRRGELEPHLFAIAEEAYRLMKNDKQNQTIVVSGESGAGKTVSAKYIMRYFASVEEENSATVQHQVEMSETEQKILATNPIMEAFGNAKTTRNDNSSRFGKYLEILFDKDTSIIGARIRTYLLERSRLVYQPPIERNYHIFYQLMAGLPAQTKEELHLTDASDYFYMNQGGDTKINGIDDAKEYKITVDALTLVGITKETQHQIFKILAALLHIGNIEIKKTRNDASLSADEPNLKLACELLGIDAYNFAKWVTKKQIITRSEKIVSNLNYSQALVAKDSVAKFIYSALFDWLVENINTVLCNPAVNDQISSFIGVLDIYGFEHFEKNSFEQFCINYANEKLQQEFNQHVFKLEQEEYVKEEIEWSFIEFNDNQPCIDLIENKLGILSLLDEESRLPAGSDESWTQKLYQTLDKSPTNKVFSKPRFGQTKFIVSHYALDVAYDVEGFIEKNRDTVSDGHLEVLKASTNETLINILEGLEKAAKKLEEAKKLELEQAGSKKPGPIRTVNRKPTLGSMFKQSLIELMNTINSTNVHYIRCIKPNADKEAWQFDNLMVLSQLRACGVLETIRISCAGFPSRWTFEEFVLRYYILIPHEQWDLIFKKKETTEEDIISVVKMILDATVKDKSKYQIGNTKIFFKAGMLAYLEKLRSNKMHNSIVMIQKKIRAKYYRKQYLQISQAIKYLQNNIKGFIIRQRVNDEMKVNCATLLQAAYRGHSIRANVFSVLRTITNLQKKIRKELKQRQLKQEHEYNAAVTIQSKVRTFEPRSRFLRTKKDTVVVQSLIRRRAAQRKLKQLKADAKSVNHLKEVSYKLENKVIELTQNLASKVKENKEMTERIKELQVQVEESAKLQETLENMKKEHLIDIDNQKSKDMELQKTIENNLQSTEQTLKDAQLELEDMVKQHDELKEESKKQLEELEQTKKTLVEYQTLNGDLQNEVKSLKEEIARLQTAMSLGTVTTSVLPQTPLKDVMGGGASNFNNMMLENSDLSPNDLNLKSRSTPSSGNNHIDSLSVDRENGVNATQINEELYRLLEDTEILNQEITEGLLKGFEVPDAGVAIQLSKRDVVYPARILIIVLSEMWRFGLTKQSESFLAQVLTTIQKVVTQLKGNDLIPSGVFWLANVRELYSFVVFALNSILTEETFKNGMTDEEYKEYVSLVTELKDDFEALSYNIYNIWLKKLQKQLQKKAINAVVISESLPGFSAGETSGFLNKIFANTEEYTMDDILTFFNSIYWCMKSFHIENEVFHAVVTTLLNYVDAICFNELIMKRNFLSWKRGLQLNYNVTRLEEWCKTHGLTDGTECLQHLIQTAKLLQVRKYTIEDIDILRGICYSLTPAQLQKLISQYQVADYESPIPQEILRYVADIVKKEAALSSSGNDSKGHEHSSSIFITPETGPFTDPFSLIKTRKFDQVEAYIPAWLSLPSTKRIVDLVAQQVVQDGH
On to B2, for which the “stoichiometry N” value in series [4] was determined as 2.
